Data as given in US20030068675, “Position dependent recognition of GNN nucleotide triplets by zinc fingers” (published 2003).

Assays:
Test in all cases: EMSA
Conditions in all cases: tags: MBP fusion
ZFP SBS#781 = ZFP SBS#781 (synthetic, UniProt P08047)
Procedure, shortened: (§1)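 Purified ZFP was titrated against labeled double-stranded target (1 nM or lower, at least 10-fold below expected Kd) carrying the natural binding site with flanks. Binding buffer was 10 mM Tris pH 7.5, 100 mM KCl, 1 mM MgCl2, 0.1 mM ZnCl2, 5 mM DTT, 10% glycerol, 0.02% BSA, with equilibration for at least 45 min. Bound and free target were separated on a 10% polyacrylamide gel.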

ZFP SBS#935 = ZFP SBS#935 (synthetic)
Procedure, shortened: as §1

ZFP SBS#911 = ZFP SBS#911 (synthetic)
ZFP SBS#911 (synthetic), sequence (chain, as listed by the source): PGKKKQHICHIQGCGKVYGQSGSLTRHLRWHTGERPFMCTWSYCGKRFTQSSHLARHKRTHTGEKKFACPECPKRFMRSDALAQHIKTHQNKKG
Procedure, shortened: as §1

ZFP SBS#929 = target: T1, ZFP SBS#929 (synthetic)
T1 chain: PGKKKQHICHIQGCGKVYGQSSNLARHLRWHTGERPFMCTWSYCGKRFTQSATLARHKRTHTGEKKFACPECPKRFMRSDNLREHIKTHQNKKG
Procedure, shortened: as §1

ZFP SBS#915 = ZFP SBS#915 (synthetic)
ZFP SBS#915 (synthetic), sequence (chain, as listed by the source): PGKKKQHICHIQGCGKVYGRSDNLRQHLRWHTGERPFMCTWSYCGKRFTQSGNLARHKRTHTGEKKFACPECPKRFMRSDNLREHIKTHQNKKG
Procedure, shortened: as §1

ZFP SBS#914 = ZFP SBS#914 (synthetic)
ZFP SBS#914 (synthetic), sequence (chain, as listed by the source): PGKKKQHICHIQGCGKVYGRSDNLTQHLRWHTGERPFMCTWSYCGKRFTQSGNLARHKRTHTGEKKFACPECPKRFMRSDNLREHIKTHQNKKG
Procedure, shortened: as §1

ZFP SBS#920 = ZFP SBS#920 (synthetic)
ZFP SBS#920 (synthetic), sequence (chain, as listed by the source): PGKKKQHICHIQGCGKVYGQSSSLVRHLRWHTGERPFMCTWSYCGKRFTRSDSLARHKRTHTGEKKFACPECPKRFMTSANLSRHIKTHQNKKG
Procedure, shortened: as §1

ZFP SBS#783 = ZFP SBS#783 (synthetic)
Procedure, shortened: as §1

ZFP SBS#785 = ZFP SBS#785 (synthetic)
ZFP SBS#785 (synthetic), sequence (chain, as listed by the source): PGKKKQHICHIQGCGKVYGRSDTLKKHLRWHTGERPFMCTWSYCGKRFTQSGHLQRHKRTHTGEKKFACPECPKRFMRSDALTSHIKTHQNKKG
Procedure, shortened: as §1

ZFP SBS#786 = ZFP SBS#786 (synthetic)
ZFP SBS#786 (synthetic), sequence (chain, as listed by the source): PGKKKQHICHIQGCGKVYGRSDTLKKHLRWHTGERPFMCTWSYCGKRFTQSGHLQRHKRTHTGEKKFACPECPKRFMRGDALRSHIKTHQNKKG
Procedure, shortened: as §1

ZFP SBS#256 = target: T2, ZFP SBS#256 (synthetic)
T2 chain: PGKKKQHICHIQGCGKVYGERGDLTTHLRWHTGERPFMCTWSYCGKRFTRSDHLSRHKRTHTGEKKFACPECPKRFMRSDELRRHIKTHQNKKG
Procedure, shortened: as §1

ZFP SBS#933 = target: T3, ZFP SBS#933 (synthetic)
T3 chain: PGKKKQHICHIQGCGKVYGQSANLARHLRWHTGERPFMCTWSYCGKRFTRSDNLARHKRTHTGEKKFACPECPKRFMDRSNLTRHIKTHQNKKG
Procedure, shortened: as §1

ZFP SBS#431 = target: T4, ZFP SBS#431 (synthetic)
T4 chain: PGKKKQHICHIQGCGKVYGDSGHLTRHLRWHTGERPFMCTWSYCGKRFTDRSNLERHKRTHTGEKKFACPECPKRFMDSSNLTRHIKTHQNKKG
Procedure, shortened: as §1

ZFP SBS#931 = ZFP SBS#931 (synthetic)
ZFP SBS#931 (synthetic), sequence (chain, as listed by the source): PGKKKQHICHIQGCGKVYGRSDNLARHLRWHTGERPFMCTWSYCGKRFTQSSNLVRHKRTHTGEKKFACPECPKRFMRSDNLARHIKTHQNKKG
Procedure, shortened: as §1

ZFP SBS#787 = target: T5, ZFP SBS#787 (synthetic)
T5 chain: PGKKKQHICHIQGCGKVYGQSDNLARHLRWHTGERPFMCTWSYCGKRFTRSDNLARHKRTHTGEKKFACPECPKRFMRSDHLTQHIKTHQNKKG
Procedure, shortened: as §1

ZFP SBS#826 = target: T6, ZFP SBS#826 (synthetic)
T6 chain: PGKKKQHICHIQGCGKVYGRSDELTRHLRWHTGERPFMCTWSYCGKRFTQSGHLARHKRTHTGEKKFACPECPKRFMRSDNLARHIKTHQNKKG
Procedure, shortened: as §1

ZFP SBS#827 = target: T7, ZFP SBS#827 (synthetic)
T7 chain: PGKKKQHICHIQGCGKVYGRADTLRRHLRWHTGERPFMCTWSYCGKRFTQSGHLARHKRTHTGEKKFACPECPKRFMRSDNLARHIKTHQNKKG
Procedure, shortened: as §1

ZFP SBS#750 = ZFP SBS#750 (synthetic)
Procedure, shortened: as §1

ZFP SBS#946 = target: T8, ZFP SBS#946 (synthetic)
T8 chain: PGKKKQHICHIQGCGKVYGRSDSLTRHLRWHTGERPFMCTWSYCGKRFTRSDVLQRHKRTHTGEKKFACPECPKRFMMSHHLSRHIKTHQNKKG
Procedure, shortened: as §1

ZFP SBS#945 = target: T9, ZFP SBS#945 (synthetic)
T9 chain: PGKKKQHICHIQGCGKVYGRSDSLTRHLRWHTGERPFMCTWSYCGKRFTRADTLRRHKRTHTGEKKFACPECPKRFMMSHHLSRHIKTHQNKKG
Procedure, shortened: as §1

ZFP SBS#948 = ZFP SBS#948 (synthetic)
ZFP SBS#948 (synthetic), sequence (chain, as listed by the source): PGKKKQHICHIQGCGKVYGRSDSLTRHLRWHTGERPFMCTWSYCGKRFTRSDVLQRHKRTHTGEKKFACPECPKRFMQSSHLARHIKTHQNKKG
Procedure, shortened: as §1

ZFP SBS#947 = ZFP SBS#947 (synthetic)
ZFP SBS#947 (synthetic), sequence (chain, as listed by the source): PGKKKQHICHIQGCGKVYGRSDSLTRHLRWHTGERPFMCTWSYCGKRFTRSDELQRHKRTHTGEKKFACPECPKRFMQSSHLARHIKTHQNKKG
Procedure, shortened: as §1

ZFP SBS#908 = target: T10, ZFP SBS#908 (synthetic)
T10 chain: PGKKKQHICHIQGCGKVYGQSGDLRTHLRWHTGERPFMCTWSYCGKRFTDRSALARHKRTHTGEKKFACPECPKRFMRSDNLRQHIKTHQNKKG
Procedure, shortened: as §1

ZFP SBS#922 = target: T11, ZFP SBS#922 (synthetic)
T11 chain: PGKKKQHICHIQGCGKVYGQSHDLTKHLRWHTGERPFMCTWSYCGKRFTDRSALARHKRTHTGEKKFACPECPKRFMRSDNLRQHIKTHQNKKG
Procedure, shortened: as §1

ZFP SBS#923 = ZFP SBS#923 (synthetic)
ZFP SBS#923 (synthetic), sequence (chain, as listed by the source): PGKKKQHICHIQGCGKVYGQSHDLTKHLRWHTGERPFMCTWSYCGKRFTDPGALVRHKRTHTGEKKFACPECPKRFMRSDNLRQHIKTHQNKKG
Procedure, shortened: as §1

ZFP SBS#921 = ZFP SBS#921 (synthetic)
ZFP SBS#921 (synthetic), sequence (chain, as listed by the source): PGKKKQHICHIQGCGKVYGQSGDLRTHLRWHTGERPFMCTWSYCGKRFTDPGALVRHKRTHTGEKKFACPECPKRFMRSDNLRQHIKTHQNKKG
Procedure, shortened: as §1

ZFP SBS#962 = ZFP SBS#962 (synthetic, UniProt P08047)
ZFP SBS#962, sequence (P08047 other isoform, or with tags, fused parts or gaps): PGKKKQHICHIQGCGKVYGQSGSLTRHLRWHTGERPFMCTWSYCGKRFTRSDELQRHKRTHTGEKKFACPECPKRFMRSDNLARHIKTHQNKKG
Procedure, shortened: as §1

ZFP SBS#963 = ZFP SBS#963 (synthetic)
Procedure, shortened: as §1

ZFP SBS#916 = ZFP SBS#916 (synthetic)
ZFP SBS#916 (synthetic), sequence (chain, as listed by the source): as the sequence (P08047 other isoform, or with tags, fused parts or gaps) above, with S23H, T25A, R50Q, D52G, E53N, Q55A, A83Q counted along it
Procedure, shortened: as §1

ZFP SBS#928 = target: T12, ZFP SBS#928 (synthetic)
T12 chain: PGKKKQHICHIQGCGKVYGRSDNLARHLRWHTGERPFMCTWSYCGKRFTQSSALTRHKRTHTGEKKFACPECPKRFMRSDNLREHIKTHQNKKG
Procedure, shortened: as §1

ZFP SBS#927 = target: T13, ZFP SBS#927 (synthetic)
T13 chain: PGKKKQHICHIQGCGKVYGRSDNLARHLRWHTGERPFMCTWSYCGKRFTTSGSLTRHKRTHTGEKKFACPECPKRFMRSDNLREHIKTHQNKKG
Procedure, shortened: as §1

ZFP SBS#904 = ZFP SBS#904 (synthetic)
ZFP SBS#904 (synthetic), sequence (chain, as listed by the source): as the sequence (P08047 other isoform, or with tags, fused parts or gaps) above, with Q20D, G22S, S23N, R50Q, D52S, E53H, Q55A, A83T, R84Q counted along it
Procedure, shortened: as §1

ZFP SBS#909 = ZFP SBS#909 (synthetic)
ZFP SBS#909 (synthetic), sequence (chain, as listed by the source): as the sequence (P08047 other isoform, or with tags, fused parts or gaps) above, with S23N, T25S, R50Q, D52G, E53N, N81A counted along it
Procedure, shortened: as §1

ZFP SBS#934 = ZFP SBS#934 (synthetic)
ZFP SBS#934 (synthetic), sequence (chain, as listed by the source): as the sequence (P08047 other isoform, or with tags, fused parts or gaps) above, with G22S, S23N, T25A, R50Q, D52G, E53N, N81A, A83T, R84S counted along it
Procedure, shortened: as §1

ZFP SBS#910 = ZFP SBS#910 (synthetic)
ZFP SBS#910 (synthetic), sequence (chain, as listed by the source): as the sequence (P08047 other isoform, or with tags, fused parts or gaps) above, with G22S, S23N, T25A, R50Q, D52G, E53N, N81A, R84Q counted along it
Procedure, shortened: as §1

ZFP SBS#905 = target: T14, ZFP SBS#905 (synthetic)
T14 chain: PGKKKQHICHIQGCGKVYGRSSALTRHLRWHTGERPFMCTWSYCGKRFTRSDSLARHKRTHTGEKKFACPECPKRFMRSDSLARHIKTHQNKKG
Procedure, shortened: as §1

ZFP SBS#926 = target: T15, ZFP SBS#926 (synthetic)
T15 chain: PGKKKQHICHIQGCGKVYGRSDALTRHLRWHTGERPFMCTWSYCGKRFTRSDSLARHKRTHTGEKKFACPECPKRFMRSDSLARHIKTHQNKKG
Procedure, shortened: as §1

ZFP SBS#932 = target: T16, ZFP SBS#932 (synthetic)
T16 chain: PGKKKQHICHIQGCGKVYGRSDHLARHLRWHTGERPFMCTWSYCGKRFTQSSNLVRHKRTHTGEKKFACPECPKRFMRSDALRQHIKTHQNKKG
Procedure, shortened: as §1

ZFP SBS#903 = ZFP SBS#903 (synthetic)
ZFP SBS#903 (synthetic), sequence (chain, as listed by the source): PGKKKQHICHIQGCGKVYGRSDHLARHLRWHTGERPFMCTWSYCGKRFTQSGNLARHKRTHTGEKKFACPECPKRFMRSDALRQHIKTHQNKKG
Procedure, shortened: as §1

ZFP SBS#912 = target: T17, ZFP SBS#912 (synthetic)
T17 chain: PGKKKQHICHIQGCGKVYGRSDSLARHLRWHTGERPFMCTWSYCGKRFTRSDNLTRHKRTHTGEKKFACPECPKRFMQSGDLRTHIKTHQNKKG
Procedure, shortened: as §1

B1: GGGGAGCAGC (dsDNA)
DNA 1: GGGGAGCAGC
DNA 2: GCTGCTCCCC
B1 gave a Kd (ZFP SBS#781) of 4.25 nM.

B2: ATGGGTGCA (dsDNA)
DNA 1: ATGGGTGCA
DNA 2: TGCACCCAT
Work on B2 yielded a Kd (ZFP SBS#935) of 0.91 nM and a Kd (ZFP SBS#911) of 0.91 nM.

B3: CAGGTAGAT (dsDNA)
DNA 1: CAGGTAGAT
DNA 2: ATCTACCTG
With B3 the Kd (ZFP SBS#929) was 1.3 nM.

B4: CAGGAAAAG (dsDNA)
DNA 1: CAGGAAAAG
DNA 2: CTTTTCCTG
B4 was tested, and the Kd (ZFP SBS#915) was 45.1 nM and the Kd (ZFP SBS#914) was 1.26 nM.

B5: GATGTGGTA (dsDNA)
DNA 1: GATGTGGTA
DNA 2: TACCACATC
B5 gave a Kd (ZFP SBS#920) of 4 nM.

B6: TTGGGAGCGG (dsDNA)
DNA 1: TTGGGAGCGG
DNA 2: CCGCTCCCAA
Binder B6 has a Kd (ZFP SBS#783) of 2000 nM, a Kd (ZFP SBS#785) of 50 nM and a Kd (ZFP SBS#786) of 2000 nM.

B7: GCGGGGTCC (dsDNA)
DNA 1: GCGGGGTCC
DNA 2: GGACCCCGC
In the case of B7, the Kd (ZFP SBS#256) is reported as 800 nM.

B8: GACGAGGAA (dsDNA)
DNA 1: GACGAGGAA
DNA 2: TTCCTCGTC
Binder B8 has a Kd (ZFP SBS#933) of 500 nM.

B9: GACGACGGC (dsDNA)
DNA 1: GACGACGGC
DNA 2: GCCGTCGTC
For B9, the Kd (ZFP SBS#431) was 100 nM.

B10: GAGGAAGAG (dsDNA)
DNA 1: GAGGAAGAG
DNA 2: CTCTTCCTC
Work on B10 yielded a Kd (ZFP SBS#931) of 2 nM.

B11: AGGGAGGATG (dsDNA)
DNA 1: AGGGAGGATG
DNA 2: CATCCTCCCT
Binder B11 has a Kd (ZFP SBS#787) of 4 nM.

B12: GAGGGAGCGA (dsDNA)
DNA 1: GAGGGAGCGA
DNA 2: TCGCTCCCTC
B12 gave a Kd (ZFP SBS#826) of 2.75 nM, a Kd (ZFP SBS#827) of 1.2 nM and a Kd (ZFP SBS#750) of 52 nM.

B13: GGTGCGGTG (dsDNA)
DNA 1: GGTGCGGTG
DNA 2: CACCGCACC
Binder B13 has a Kd (ZFP SBS#946) of 0.027 nM, a Kd (ZFP SBS#945) of 0.027 nM and a Kd (ZFP SBS#948) of 0.017 nM. The Kd (ZFP SBS#947) was 0.013 nM.

B14: AAGGTCTCA (dsDNA)
DNA 1: AAGGTCTCA
DNA 2: TGAGACCTT
B14 gave a Kd (ZFP SBS#908) of 50 nM, a Kd (ZFP SBS#922) of 4 nM and a Kd (ZFP SBS#923) of 2 nM. For the same binder, the Kd (ZFP SBS#921) was 11 nM.

B15: GAGGCGGCA (dsDNA)
DNA 1: GAGGCGGCA
DNA 2: TGCCGCCTC
Binder B15 has a Kd (ZFP SBS#962) of 0.015 nM and a Kd (ZFP SBS#963) of 0.015 nM.

B16: GAGGAAGGA (dsDNA)
DNA 1: GAGGAAGGA
DNA 2: TCCTTCCTC
B16 showed a Kd (ZFP SBS#916) of 1.3 nM.

B17: CAGGTTGAG (dsDNA)
DNA 1: CAGGTTGAG
DNA 2: CTCAACCTG
Binder B17 has a Kd (ZFP SBS#928) of 25 nM and a Kd (ZFP SBS#927) of 3.61 nM.

B18: AAGGGTGAC (dsDNA)
DNA 1: AAGGGTGAC
DNA 2: GTCACCCTT
Work on B18 yielded a Kd (ZFP SBS#904) of 1 nM.

B19: GTGGAAGAA (dsDNA)
DNA 1: GTGGAAGAA
DNA 2: TTCTTCCAC
In the case of B19, the Kd (ZFP SBS#909) is reported as 16.4 nM.

B20: ATGGAAGAT (dsDNA)
DNA 1: ATGGAAGAT
DNA 2: ATCTTCCAT
Work on B20 yielded a Kd (ZFP SBS#934) of 0.07 nM and a Kd (ZFP SBS#910) of 0.03 nM.

B21: GTGGTGGTG (dsDNA)
DNA 1: GTGGTGGTG
DNA 2: CACCACCAC
B21 showed a Kd (ZFP SBS#905) of 1.15 nM and a Kd (ZFP SBS#926) of 7.5 nM.

B22: ATGGAAGGG (dsDNA)
DNA 1: ATGGAAGGG
DNA 2: CCCTTCCAT
In the case of B22, the Kd (ZFP SBS#932) is reported as 797 nM and the Kd (ZFP SBS#903) is reported as 1.03 nM.

B23: TCAGAGGTG (dsDNA)
DNA 1: TCAGAGGTG
DNA 2: CACCTCTGA
With B23 the Kd (ZFP SBS#912) was 0.135 nM.
